Experiment [1] concerns the target Crovalimab (human). The experiment is described as follows: SPR; Biacore T200, 37 °C, pH 7.4; antibodies captured by goat anti-human IgG (Fc) on a CM4 chip (50-80 RU); recombinant human C5 as analyte, three-fold dilutions from 27 nM; 20 mM ACES, 150 mM NaCl, 1.2 mM CaCl2, 0.05% Tween 20, 0.005% NaN3; 1:1 binding model. For orientation: SPR reads the build-up and loss of mass on a sensor chip optically.

Experiment [2] concerns the target Crovalimab (human). The experiment is described as follows: SPR; Biacore T200, 37 °C, pH 5.8; antibodies captured by goat anti-human IgG (Fc) on a CM4 chip (50-80 RU); recombinant human C5 as analyte, three-fold dilutions from 135 nM; 20 mM ACES, 150 mM NaCl, 1.2 mM CaCl2, 0.05% Tween 20, 0.005% NaN3; 1:1 binding model.

Sequence of Crovalimab (human) (light, as listed by the source, chain 2 of 2, other chains not shown): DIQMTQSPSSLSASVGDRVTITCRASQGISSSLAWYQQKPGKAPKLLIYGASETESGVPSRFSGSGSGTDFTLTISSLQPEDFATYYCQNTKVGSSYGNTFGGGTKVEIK

The term Kd denotes the concentration at which binding is half-saturated. By koff is commonly meant a measure of how fast the partners let go of each other. Broadly, the kon is the second-order rate constant of association. With Recombinant human C5 (natural protein), in the experiment with Crovalimab (human) [1], the dissociation constant Kd is 0.166 nM, the dissociation rate constant (koff) is 0.000123 s⁻¹ and the kon was 741000 M⁻¹ s⁻¹. Further, in the experiment with Crovalimab (human) [2], the Kd turned out to be 132 nM, the koff came to 0.0164 s⁻¹ and the on-rate constant (kon) came out at 125000 M⁻¹ s⁻¹.

The record behind these values is PMC11546984.
